Data: US20190367631A1 (Regeneron, published 2019)
Substitutions are numbered along the chain they refer to. Names and notes keep the numbering of the source.

T1: human MSR1 extracellular domain expressed with a N-terminal nonahistidine tag (human, UniProt P21757 77-451)
T1 construct: extracellular domain; also called His9-hMSR1; His-hMSR1
T1 sequence: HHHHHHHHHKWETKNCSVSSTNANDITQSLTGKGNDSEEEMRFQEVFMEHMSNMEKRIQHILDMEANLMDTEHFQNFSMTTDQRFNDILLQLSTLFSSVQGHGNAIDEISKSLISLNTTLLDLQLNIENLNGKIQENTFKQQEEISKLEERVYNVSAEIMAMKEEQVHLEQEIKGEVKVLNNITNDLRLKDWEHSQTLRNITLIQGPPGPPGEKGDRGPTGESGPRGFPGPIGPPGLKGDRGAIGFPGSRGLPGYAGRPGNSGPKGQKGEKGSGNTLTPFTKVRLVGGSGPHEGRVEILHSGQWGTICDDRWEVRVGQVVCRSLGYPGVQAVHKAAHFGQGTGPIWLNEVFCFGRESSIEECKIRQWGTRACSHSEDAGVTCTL

B1: H1H27766P2-N297Q (antibody, V domains shown)
VH: EVQLVESGGGLVQPGGSLRLSCAASGFTFSSFAMSWVRQAPGKELEWVSSISGRGGSTYYADSVRGRFTISRDNSKITLYLQMNSLRAEDTAVYYCAKDIVFRYTSSAYWYFDLWGRGTLVTVSS
VL: not shown
notes: Human IgG1 Fc with N297Q; also called H1H27766P-N297Q
B2: H1H27731P-N297Q (antibody, V domains shown)
VH: QLQLQESGPGLVKPSETLSLTCTVSGGSISRISYYWGWIRQPPGKGLEWIGSIYDSGSTYYNPSLKSRVTISIDTSKNQFSLKLSSVTAADTAVYYCVRYSSSSAFAFDYWGQGTLVTVSS
VL: DIQMTQSPSSVSASVGDRVTITCRASQGISSWLAWYQQKPGKAPKLLIYAASSLQSGVPSRFSGSGSGTDFTLTISSLQPEDFATYYCQQANSFPFTFGPGTKVDIKR
notes: Human IgG1 Fc with N297Q
B3: H1H27747P-N297Q (antibody, V domains shown)
VH: QVQLVESGGAVVQPGRSLRLSCAASGFTFSYYGMHWVRQAPGKGLEWVAVISYDGSKKYYADSVKGRFTISRDNSKNTLYLQMNSLRAEDTAVYYCAKDLTVDFYYGMDVWGQGTTVTVSS
VL: B2 VL with A51T, V58A, Y87F, F96Y, P100Q, V104L, D105E
notes: Human IgG1 Fc with N297Q
B4: H1H27754P-N297Q (antibody, V domains shown)
VH: EVQLVESGGGLVQPGGSLRLSCAASGFTFRTYAMTWVRQAPGKGLDWVSAITGDGGNTYYADSVKGRFTISRDNSKNTLYLQMNSLRAEDTAIYYCAKDQRFSFALYYFDYWGQGTLVTVSS
VL: B2 VL with K42N, S52F, S93N, F96W, P100Q, D105E
notes: Human IgG1 Fc with N297Q
B5: H1H27736P-N297Q (antibody, V domains shown)
VH: EVQLVESGGGLVQPGGSLRLSCAASGFTFSSYAMSWVRQAPGKGLEWVSSISGSGDSTFYTDSVKGRFTISRDISKNTLYLQMNSLRAEDTAVYYCAKDRLLWFGDLISPFHYWGQGTLVTVSS
VL: EIVLTQSPGTLSLSPGERATLSCRASQSVSNIYLAWYQQKPAQAPRLLIYGASSRATGIPDRFSVSGSGTDFTLTISRLEPEDFAVYYCQQYGSSPRTFGQGTKVEIKR
notes: Human IgG1 Fc with N297Q
B6: H1H27732P-N297Q (antibody, V domains shown)
VH: QLQLQESGPGLVKPSETLSLTCTVSGGSISSSTYYWGWIRQPPGKGLEWIGSFYYSGSTYYNPSLKSRVTISVGTSKNQFSLKLSSVTAADTAVYFCARGGLLGRPFVIWGQGTMVTVSS
VL: DIQMTQSPSSLSASVGDRVTITCRASQGIRNDLGWYQQKPGKAPKRLIYAASSLQSGVPSRFSGSGSGTEFTLTISSLQPEDFATYYCLQHNSYPLTFGGGTKVEIKR
notes: Human IgG1 Fc with N297Q
B7: H1H27760P2-N297Q (antibody, V domains shown)
VH: EVQLVESGGGLVQPGRSLRLSCAASGFTFDAYAMHWVRQAPGKGLEWVSGISWNSGSIGYADSVKGRFTISRDNAKNSLYLQMNSLREEDTALYYCAKDKILELYYYGMDVWGQGTTVTVSS
VL: not shown
notes: Human IgG1 Fc with N297Q; also called H1H27760P-N297Q
B8: H1H27756P-N297Q (antibody, V domains shown)
VH: QVQLVESGGGVVQPGRSLRLSCAASGFTFSNYDMHWVRQAPGKGLEWMAVISYDGINKYYADSVKGRFTISRDNSKNTLYLQMNSLRAEDTAVYYCAKGTYSWYFDLWGRGTLVTVSS
VL: not shown
notes: Human IgG1 Fc with N297Q
B9: H1H27749P-N297Q (antibody, V domains shown)
VH: QVQLQESGPGLVKPSETLSLTCTVSDGSISSYYWSWIRQPPGRGLEWIGFIYYSGSTSYNPSLKSRVTISVDTSMSQFSLKLRSVTAADTAVYYCARGSPFDYWGPGTLVTVSS
VL: EIVLTQSPGTLSLSPGERATLSCRASQSVSSSYLAWYQQRPGQAPSLLISGASRRATGIPDRFSGSGSGTDFTLTIRRLEPEDFAMYYCQQYGSSPPTFGGGTKVEIKR
notes: Human IgG1 Fc with N297Q
B10: H1H27751P-N297Q (antibody, V domains shown)
VH: EVQLVESGGGLVQPGGSLRLSCAASGFTFSNYAMHWVRQAPGKGLEYVSAISSNGGSTYYADSVKGRITISRDNSKNTLYLQMGSLRAEDMAVYYCARGRPYYYYFGMDVWGQGTTVTVSS
VL: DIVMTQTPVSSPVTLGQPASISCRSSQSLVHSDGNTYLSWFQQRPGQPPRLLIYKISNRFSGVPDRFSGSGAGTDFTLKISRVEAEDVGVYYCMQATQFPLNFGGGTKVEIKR
notes: Human IgG1 Fc with N297Q
B11: H1H27734P-N297Q (antibody, V domains shown)
VH: EVQLVESRGGLVQPGGSLRLSCAASGFTFSSYAMSWVRQAPGKGLEWVSAISGSGGSTFYADSVKGRFTISRDNSKNTVYLQMNSLRAEDTAVYYCAKALVLRFLEWLGDYWGQGTLVTVSS
VL: DIQMTQSPSTLSASVGDRVTITCRASQSISSWLAWFQQKPGKAPKLLIYKASSLESGVPSRFSGSGSGTEFTLTISSLQPDDFATYYCQQYKSYWTFGQGTKVEIKR
notes: Human IgG1 Fc with N297Q
B12: H1H27739P-N297Q (antibody, V domains shown)
VH: EVQLVESGGGLVQPGGSLRLSCTASGFTFSSYAMSWVRQAPGKGLEWVSAISGTGSSTYFTDSVKGRFAISRDNSKNTLYLQMNSLRAEDTAVYYCAKDGEWLSTVTLFDYWGQGTLVTVSS
VL: EIVMTQSPATLSVSPGERATLSCRASQSVSSNLAWYQQKPGQAPRLLIYGASTRATGIPARFSGSGSGTDFTLTISSLQSEDFALYYCQQYFIWPPHPTFGPGTKVDIKR
notes: Human IgG1 Fc with N297Q
B13: H1H27729P-N297Q (antibody, V domains shown)
VH: QVQLVESGGGLVKPGGSLRLSCAASGFIFSDYYMSWIRQAPGKGLEWVSYISSSGTTIYGDSVKGRFTMSRDNAKNSLYLQMNSLRAEDTAVYYCARNYALFDYWGQGTLVTVSS
VL: DIQMTQSPSSLSASVGDRVTITCQASQDISKYLNWYQQKPGKAPKLLIYYTSNLETGVPSRFSGSGSGTDFTFTISSLQPEDIATYYCHQSDYLPFTFGPGTKVDIKR
notes: Human IgG1 Fc with N297Q
B14: H1H27761P2-N297Q (antibody, V domains shown)
VH: EVQLVESGGDLVQPGGSLRLSCSASGFTFNIYAMSWVRQAPGKGLEWVSGISGSGGSTYYADSVKGRFTISRDNSKNTLYFQMNSLRVEDTAVYYCAKKISSSSYYYYAMDVWGQGTTVTVSS
VL: not shown
notes: Human IgG1 Fc with N297Q; also called H1H27761P-N297Q
B15: H1H27759P2-N297Q (antibody, human IgG1, V domains shown)
VH: EVQLVESGGGFVQPGGSLRLSCAASGFTFSSYAMSWVRQAPGKGLEWVSAISGTGSNTYYADSVKGRFTISRDNSKNTLYLQMNSLRAEDTAVYYCAKDRVTTVTYYFDYWGQGTLVTVSS
VL: not shown
notes: Human IgG1 Fc with N297Q; also called H1H27759P-N297Q
B16: H1H27762P2-N297Q (antibody, V domains shown)
VH: QVQLVQSGAEVKKPGSSVKVSCKASGGTFSRYDISWVRQAPGQGLEWMGGIIPIFGTSNYAQKFQGRVTITTDESTSTVYMELSSLRSEDTAVYYCARGGRYGWFDPWGQGTLVTVSS
VL: not shown
notes: Human IgG1 Fc with N297Q; also called H1H27762P-N297Q
B17: H1H27773P2-N297Q (antibody, human IgG1, V domains shown)
VH: EVQLVESGGGLVQPGGSLRLSCAASGFTFSSYAMNWVRQAPGKGLEWVSAISGSGDSTYYADSVKGRFTISRDNSRTTLSLQLNSLRAEDTAVYYCAKDRLLWFGELGSPFHYWGQGTLVTVSS
VL: not shown
notes: Human IgG1 Fc with N297Q; also called H1H27773P-N297Q

Biological target: T1, human MSR1 extracellular domain …
Experiment: competition ELISA, plate-coated His9-hMSR1; 100 nM antibody, competitor ligand Ac-LDL
Procedure: (§1) Buffer alone was also added to wells on each coat. […] This assay was conducted in four different assay runs.
(§2) Data analysis was performed using a sigmoidal dose-response model within Prism™ software (GraphPad).

Binder	% Blocking
B1	52%
B2	-41%
B3	-44%
B4	-42%
B5	-31%
B6	-61%
B7	-43%
B8	-54%
B9	-51%
B10	-51%
B11	-38%
B12	-47%
B13	8%
B14	-36%
B15	-45%
B16	-58%

Biological target: T1, human MSR1 extracellular domain …
Experiment: competition ELISA, plate-coated His9-hMSR1; 1 µM antibody, competitor ligand 10 nM Ox-LDL
Procedure: as §1, §2

Binder	% Blocking
B1	54%
B2	-1%
B3	-31%
B4	-44%
B5	3%
B6	-60%
B7	-47%
B8	-45%
B9	-21%
B10	-31%
B17	2%
B11	-15%
B12	-41%
B13	36%
B14	-21%
B15	-62%
B16	-65%

Biological target: T1, human MSR1 extracellular domain …
Experiment: competition ELISA, plate-coated His9-hMSR1; 300 nM antibody, competitor ligand biot-AGE-BSA
Procedure: as §1, §2

Binder	% Blocking
B1	27%
B2	4%
B3	-2%
B4	-9%
B5	-3%
B6	-9%
B7	-4%
B8	-8%
B9	-1%
B10	-11%
B17	1%
B11	-4%
B12	-9%
B13	15%
B14	-4%
B15	-19%
B16	-16%
